B1: OsHPPD (4-hydroxyphenylpyruvate dioxygenase) (Oryza sativa Japonica Group) (protein)
chain: PPTPTPTATTGAVSAAAAAGENAGFRLVGHRRFVRANPRSDRFQALAFHHVELWCADAASAAGRFAFALGAPLAARSDLSTGNSAHASLLLRSASVAFLFTAPYGGDHGVGADAATTASIPSFSPGAARRFAADHGLAVHAVALRVADAADAFRASVAAGARPAFQPADLGGGFGLAEVELYGDVVLRFVSHPDGADAPFLPGFEGVSNPGAVDYGLRRFDHVVGNVPELAPVAAYISGFTGFHEFAEFTAEDVGTAESGLNSVVLANNAETVLLPLNEPVHGTKRRSQIQTYLDHHGGPGVQHIALASDDVLGTLREMRARSAMGGFEFLAPPPPNYYDGVRRRAGDVLSEEQINECQELGVLVDRDDQGVLLQIFTKPVGDRPTFFLEMIQRIGCMEKDESGQEYQKGGCGGFGKGNFSELFKSIEEYEKSLEAKQAPTVQGS
B2: AtHPPD (4-hydroxyphenylpyruvate dioxygenase) (Arabidopsis thaliana) (protein)
chain: MGHQNAAVSENQNHDDGAASSPGFKLVGFSKFVRKNPKSDKFKVKRFHHIEFWCGDATNVARRFSWGLGMRFSAKSDLSTGNMVHASYLLTSGDLRFLFTAPYSPSLSAGEIKPTTTASIPSFDHGSCRSFFSSHGLGVRAVAIEVEDAESAFSISVANGAIPSSPPIVLNEAVTIAEVKLYGDVVLRYVSYKAEDTEKSEFLPGFERVEDASSFPLDYGIRRLDHAVGNVPELGPALTYVAGFTGFHQFAEFTADDVGTAESGLNSAVLASNDEMVLLPINEPVHGTKRKSQIQTYLEHNEGAGLQHLALMSEDIFRTLREMRKRSSIGGFDFMPSPPPTYYQNLKKRVGDVLSDDQIKECEELGILVDRDDQGTLLQIFTKPLGDRPTIFIEIIQRVGCMMKDEEGKAYQSGGCGGFGKGNFSELFKSIEEYEKTLEAKQLVG

Substrate: O=C(O)C(=O)Cc1ccc(O)cc1
Experiment: purified protein
Details: Fe(II)

Row | Protein | Km
1 | B1 | 40.02 µM
2 | B2 | 44.04 µM

— PMC12203613
